No end group written: not given here. TMR = tetramethyl rhodamine
Target: T1, human Discs Large 1 (hDlg1) PDZ2 domain, residues 310-407 (human, UniProt Q12959 310-407)
T1 construct: N-terminal gly-ser cloning artifact left on the PDZ2 domain after thrombin cleavage of GST; human Discs Large 1 (Dlg1), PDZ2 domain, residues 310-407; synthetic gene with E. coli codon usage in pGEX-2T; In the final model chain A holds residues 310-406, with R310 modelled as alanine; also called hDlg PDZ2; source: E. coli BL21 DE3 pLysS, purified (Glutathione Sepharose, thrombin cleavage, SP …)
Assay: crystal structure; 1.4 mM Dlg1 PDZ2 incubated with 1.7 mM APC C-terminal peptide (1:1.2) in 100 mM NaCl, 25 mM Tris pH 7.0, 0.1% beta-mercaptoethanol; hanging drop, 200 mM sodium acetate, 100 mM sodium cacodylate pH 6.25, 28% PEG 8000, 20°C; space group P212121, 2.0 Å
Settings: both partners purified

T1 sequence (Q12959 other isoform, or with tags, fused parts or gaps): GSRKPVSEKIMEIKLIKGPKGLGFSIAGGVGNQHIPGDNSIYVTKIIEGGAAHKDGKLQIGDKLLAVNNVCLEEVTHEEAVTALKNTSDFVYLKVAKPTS

- binding result: binds
B1: APC C-terminal peptide RHSGSYLVTSV (residues 2833-2843) with N-terminal tetramethyl rhodamine (peptide)
peptide: {TMR}-RHSGSYLVTSV
notes: human Adenomatous Polyposis Coli (APC), C-terminal 11 residues 2833-2843 of the 2843 amino acid protein; Only residues 2838-2843 are seen in the electron density; the TMR fluorophore and the N-terminal five residues are not; also called APC peptide; TMR-APC peptide; source: synthetic peptide (Yale Keck Biotechnology Resource Laboratory), purified by HPLC
